Measurements: article PMC11482907 (bioRxiv, 2024)

Biological target: the molecule itself
Experiment: cryo-EM structure

B1: HCMV UL141 soluble ectodomain (residues 30-278) with C-terminal 8X His-Tag (domain or fragment)
chain: SFPFATADIAEKMWAENYETTSPAPVLVAEGEQVTIPCTVMTHSWPMVSIRARFCRSHDGSDELILDAVKGHRLMNGLQYRLPYATWNFSQLHLGQIFSLTFNVSTDTAGMYECVLRNYSHGLIMQRFVILTQLETLSRPDEPCCTPALGRYSLGDQIWSPTPWRLRNHDCGMYRGFQRNYFYIGRADAEDCWKPACPDEEPDRCWTVIQRYRLPGDCYRSQPHPPKFLPVTPAPPADIDTGMSPWATR
B1 was tested, and the “stoichiometry N” value was 2.
